The target in assay [1] is catalytic domain of matrix metalloproteinase-14 (MMP14) (human) (UniProt P50281). The assay can be described thus: SPR; cat-MMP14 amine-coupled on a CM5 chip (Biacore T200); 3CL^pro (0.062-20 uM) or PL^pro (0.041-10 uM) flowed in PBSP (20 mM phosphate pH 7.4, 137 mM NaCl, 2.7 mM KCl, 0.05% P20), 30 uL/min, 180 s association, 300 s dissociation, 25 C; 1:1 Langmuir kinetic fit, KD = kd/ka.

In assay [2] the target is SARS-CoV-2 3-chymotrypsin-like protease (3CL^pro) (SARS-CoV-2). The assay can be described thus: mass photometry; TwoMP mass photometer, proteins diluted in PBS to 10 nM, room temperature, 60 s; the monomer is too small to resolve.

In assay [1], “SARS-CoV-2 3-chymotrypsin-like protease (3CL^pro) (enzyme)” registered a Kd of 3.21 µM, a koff of 0.0012 s⁻¹ and a kon of 386 M⁻¹ s⁻¹. For the same substance, the stoichiometry N in assay [2] was determined as 2.

Source of the values: paper PMC12524713.
